In one assay the target is T1, endogenous calnexin (UniProt P27824 21-592).
T1 construct: Endogenous endoplasmic reticulum protein used as a control
T1 sequence (looked up): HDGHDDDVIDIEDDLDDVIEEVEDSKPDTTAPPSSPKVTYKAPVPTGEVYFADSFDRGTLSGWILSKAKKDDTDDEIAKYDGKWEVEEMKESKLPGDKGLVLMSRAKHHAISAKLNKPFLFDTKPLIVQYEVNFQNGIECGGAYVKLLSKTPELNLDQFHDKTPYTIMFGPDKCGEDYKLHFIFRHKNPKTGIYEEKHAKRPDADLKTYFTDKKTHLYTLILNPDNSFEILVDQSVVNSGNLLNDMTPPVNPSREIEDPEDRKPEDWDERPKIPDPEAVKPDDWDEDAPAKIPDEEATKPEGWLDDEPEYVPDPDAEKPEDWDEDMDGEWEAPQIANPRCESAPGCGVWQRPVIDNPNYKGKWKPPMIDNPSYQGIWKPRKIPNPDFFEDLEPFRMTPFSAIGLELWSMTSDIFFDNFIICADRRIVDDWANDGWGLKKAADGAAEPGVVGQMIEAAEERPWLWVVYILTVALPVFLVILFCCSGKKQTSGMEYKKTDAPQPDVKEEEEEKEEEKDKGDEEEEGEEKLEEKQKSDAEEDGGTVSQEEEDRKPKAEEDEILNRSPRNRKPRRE
Put plainly: co-immunoprecipitation.

Assay [1] has as its target wild type PS1 (wtPS1) holoprotein (human, UniProt P49768 1-467). Put plainly: co-immunoprecipitation with anti-PS1 loop or N-terminus antibodies, Western blot. Here is the method: Co-immunoprecipitation and glycerol velocity gradient fractionation were performed as previously described in Yu et al., 1998, J.Biol.Chem. 273:16470-16475. Immunoprecipitations were performed on cell lysates 48 hours after transient transfections. Total proteins (2 mg/ml) were extracted from cultured cells or brain tissue using a lysis buffer (0.2% NP-40, 0.5% Triton X-100, 50 mM Tris-HCl [pH7.6], 150 mM NaCl, 2 mM EDTA, 2 mM PMSF, […] each of aprotinin, leupeptin, pepstatin). […] New York, Cold Spring Harbor Laboratory Press. Protein A Sepharose was subsequently added to the antibody-antigen complex and incubated for 2 hours at 4° C. The beads were washed four times with a washing buffer (0.2% NP-40, 50 mM Tris-HCl[pH7.6], 150 mM NaCl, 2 mM EDTA). IP products were resolved by SDS-PAGE and investigated for the co-immunoprecipitated partners with the corresponding antibody and detection with ECL (Amersham). […]
Western blots of anti-PS 1 immunoprecipitates from PS1 transfected HEK293 cells were examined for the presence of other arm proteins expressed endogenously in HEK293 cells. Endogenous β-catenin, but not endogenous α-catenin, γ-catenin, or calnexin were detected in Western blots of immunoprecipitation products from HEK293 cells stably transfected with PS1, using either antibodies to PS1 cytoplasmic loop or to the PS1 N-terminus.
In general terms: In western blotting, separated proteins are transferred to a membrane and probed.

This is an account of results in patent US20020127541A1 (GOVERNING COUNCIL OF THE UNIVERSITY OF TORONTO, published 2002).

B1: Myc-tagged hNPRAP528-1084 (other, human)
chain: ALKMPIIQDALAVLTNAVIIPHSGWENSPLQDDRKIQLHSSQVLRNATGCLRNVSSAGEEARRRMRECDGLTDALLYVIQSALGSSEIDSKTVENCVCILRNLSYRLAAETSQGQHMGTDELDGLLCGEANGKDAESSGCWGKKKKKKKSQDQWDGVGPLPDCAEPPKGIQMLWHPSIVKPYLTLLSECSNPDTLEGAAGALQNLAAGSWKWSVYIRAAVRKEKGLPILVELLRIDNDRVVCAVATALRNMALDVRNKELIGKYAMRDLVHRLPGGNNSNNTASKAMSDDTVTAVCCTLHEVITKNMENAKALRDAGGIEKLVGISKSKGDKHSPKVVKAASQVLNSMWQYRDLRSLYKKDGWSQYHFVASSSTIERDRQRPYSSSRTPSISPVRVSPNNRSASAPASPREMISLKERKTDYECTGSNATYHGGKGEHTSRKDAMTAQNTGISTLYRNSYGAPAEDIKHNQVSAQPVPQEPSRKDYETYQPFQNSTRNYDESFFEDQVHHRPPASEYTMHLGLKSTGNYVDFYSAARPYSELNYETSHYPASPDSWV
notes: Transiently expressed in HEK293 cells; also called myc-hNPRAP
With B1, in the assay with endogenous calnexin, the binding result is listed as “no binding”.

B2: endogenous α-catenin (other)
chain: TAVHAGNINFKWDPKSLEIRTLAVERLLEPLVTQVTTLVNTNSKGPSNKKRGRSKKAHVLAASVEQATENFLEKGDKIAKESQFLKEELVAAVEDVRKQGDLMKAAAGEFADDPCSSVKRGNMVRAARALLSAVTRLLILADMADVYKLLVQLKVVEDGILKLRNAGNEQDLGIQYKALKPEVDKLNIMAAKRQQELKDVGHRDQMAAARGILQKNVPILYTASQACLQHPDVAAYKANRDLIYKQLQQAVTGISNAAQATASDDASQHQGGGGGELAYALNNFDKQIIVDPLSFSEERFRPSLEERLESIISGAALMADSSCTRDDRRERIVAECNAVRQALQDLLSEYMGNAGRKERSDALNSAIDKMTKKTRDLRRQLRKAVMDHVSDSFLETNVPLLVLIEAAKNGNEKEVKEYAQVFREHANKLIEVANLACSISNNEEGVKLVRMSASQLEALCPQVINAALALAAKPQSKLAQENMDLFKEQWEKQVRVLTDAVDDITSIDDFLAVSENHILEDVNKCVIALQEKDVDGLDRTAGAIRGRAARVIHVVTSEMDNYEPGVYTEKVLEATKLLSNTVMPRFTEQVEAAVEALSSDPAQPMDENEFIDASRLVYDGIRDIRKAVLMIRTPEELDDSDFETEDFDVRSRTSVQTEDDQLIAGQSARAIMAQLPQEQKAKIAEQVASFQEEKSKLDAEVSKWDDSGNDIIVLAKQMCMIMMEMTDFTRGKGPLKNTSDVISAAKKIAEAGSRMDKLGRTIADHCPDSACKQDLLAYLQRIALYCHQLNICSKVKAEVQNLGGELVVSGVDSAMSLIQAAKNLMNAVVQTVKASYVASTKYQKSQGMASLNLPAVSWKMKAPEKKPLVKREKQDETQTKIKRASQKKHVNPVQALSEFKAMDSI
notes: Endogenous protein of HEK293 cell lysates
For B2, the binding result in assay [1] is given as “no binding”.
